In patent US20150344570A1 (published 2015):

T1: FcγRIIb (human, UniProt P31994 43-217)
T1 construct: extracellular domain; Soluble extracellular domain with C-terminal His tag, used as analyte in Biacore; also called FcgRIIb; 2b; not shown: His tag attached to the C terminus
T1 sequence (looked up): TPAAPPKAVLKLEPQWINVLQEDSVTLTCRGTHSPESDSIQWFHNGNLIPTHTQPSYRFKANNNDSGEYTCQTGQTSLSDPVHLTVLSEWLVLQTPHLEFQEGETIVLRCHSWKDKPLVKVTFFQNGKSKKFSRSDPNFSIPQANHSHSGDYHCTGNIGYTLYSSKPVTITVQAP

T2: FcγRIIb extracellular domain with C-terminal His tag (human, UniProt P31994 43-217)
T2 construct: extracellular domain; Soluble receptor expressed in FreeStyle293 cells and used as analyte in Biacore; also called FcgRIIb; 2b; not shown: His tag attached to the C terminus
T2 sequence (looked up): T1 sequence (looked up)

B1: GpH7-A5/GpH7-B3 variant L235_15Y/GpL16-k0 (antibody, human IgG1, kappa)
heavy 1: not shown
heavy 2: not shown
light: DIVMTQSPLSLPVTPGEPASISCQASESLVHSNRNTYLHWYLQKPGQSPQLLIYKVSNRFSGVPDRFSGSGSGTDFTLKISRVEAEDVGVYYCSQNTHVPPTFGQGTKVEIERTVAAPSVFIFPPSDEQLKSGTASVVCLLNNFYPREAKVQWKVDNALQSGNSQESVTEQDSKDSTYSLSSTLTLSKADYEKHKVYACEVTHQGLSSPVTKSFNRGEC
notes: Heterodimerized anti-glypican-3 IgG1; alteration in the GpH7-B3 chain only; also called He Ab
B2: GpH7-A5/GpH7-B3 variant G237_08L/GpL16-k0 (antibody, human IgG1, kappa)
heavy 1: not shown
heavy 2: not shown
light: B1 light
notes: as for B1
B3: GpH7-A5/GpH7-B3 variant G237_18N/GpL16-k0 (antibody, human IgG1, kappa)
heavy 1: not shown
heavy 2: not shown
light: B1 light
notes: as for B1
B4: GpH7-A5/GpH7-B3 variant P271_20W/GpL16-k0 (antibody, human IgG1, kappa)
heavy 1: not shown
heavy 2: not shown
light: B1 light
notes: Heterodimerized anti-glypican-3 IgG1 with the alteration in only one H chain; also called He Ab
B5: GpH7-A5/GpH7-B3 variant L235_20W/GpL16-k0 (antibody, human IgG1, kappa)
heavy 1: not shown
heavy 2: not shown
light: B1 light
notes: as for B1
B6: GpH7-A5/GpH7-B3 variant E269_16H/GpL16-k0 (antibody, human IgG1, kappa)
heavy 1: not shown
heavy 2: not shown
light: B1 light
notes: as for B4
B7: GpH7-A5/GpH7-B3 variant E269_12R/GpL16-k0 (antibody, human IgG1, kappa)
heavy 1: not shown
heavy 2: not shown
light: B1 light
notes: as for B4
B8: GpH7-A5/GpH7-B3 variant E269_11K/GpL16-k0 (antibody, human IgG1, kappa)
heavy 1: not shown
heavy 2: not shown
light: B1 light
notes: as for B4
B9: GpH7-A5/GpH7-B3 variant P238_06M/GpL16-k0 (antibody, human IgG1, kappa)
heavy 1: not shown
heavy 2: not shown
light: B1 light
notes: as for B1
B10: GpH7-A5/GpH7-B3 variant E269_07I/GpL16-k0 (antibody, human IgG1, kappa)
heavy 1: not shown
heavy 2: not shown
light: B1 light
notes: as for B4
B11: GpH7-A5/GpH7-B3 variant E269_08L/GpL16-k0 (antibody, human IgG1, kappa)
heavy 1: not shown
heavy 2: not shown
light: B1 light
notes: as for B4
B12: GpH7-A5/GpH7-B3 variant G237_09D/GpL16-k0 (antibody, human IgG1, kappa)
heavy 1: not shown
heavy 2: not shown
light: B1 light
notes: as for B1
B13: GpH7-A5/GpH7-B3 variant E269_03V/GpL16-k0 (antibody, human IgG1, kappa)
heavy 1: not shown
heavy 2: not shown
light: B1 light
notes: as for B4
B14: GpH7-A5/GpH7-B3 variant G237_19Q/GpL16-k0 (antibody, human IgG1, kappa)
heavy 1: not shown
heavy 2: not shown
light: B1 light
notes: as for B1
B15: GpH7-A5/GpH7-B3 variant L234_09D/GpL16-k0 (antibody, human IgG1, kappa)
heavy 1: not shown
heavy 2: not shown
light: B1 light
notes: as for B1
B16: GpH7-A5/GpH7-B3 variant G237_10E/GpL16-k0 (antibody, human IgG1, kappa)
heavy 1: not shown
heavy 2: not shown
light: B1 light
notes: as for B1
B17: GpH7-A5/GpH7-B3 variant G237_20W/GpL16-k0 (antibody, human IgG1, kappa)
heavy 1: not shown
heavy 2: not shown
light: B1 light
notes: as for B1
B18: GpH7-A5/GpH7-B3 variant G237_04F/GpL16-k0 (antibody, human IgG1, kappa)
heavy 1: not shown
heavy 2: not shown
light: B1 light
notes: as for B1

How the values were obtained:
[1] = target: T3, FcγRIa (human, UniProt P12314 16-292); assay: SPR (Biacore); He/Con_1a divided by He/Con_2b (binding to FcγRIa against binding to FcγRIIb)
T3 construct: extracellular domain; Soluble extracellular domain with C-terminal His tag, used as analyte in Biacore; also called FcgRI; 1a; not shown: His tag attached to the C terminus
Method: (§1) The heterodimerized antibodies He Abs in which one of the H chains was introduced with an alteration were assayed for their binding activities to each activating FcγR and inhibitory FcγR according to the method described in Example 4. […] The activating FcγRs in FIGS. 26, 27, 28, and 29 are FcγRIa, FcγRIIa (R), FcγRIIa (H), and FcγRIIIa, respectively.
(§2) Analysis of interaction between objective antibody and the FcγR was carried out using Biacore T100 (GE Healthcare). HBS-EP+ (GE Healthcare) was used as the running buffer, and the measurement temperature was set to 25° C. Chips produced by immobilizing the antigen peptide by the amine coupling method to a Series S Sencor Chip CM5 (GE Healthcare), or alternatively, chips produced by allowing preliminarily biotinylated antigen peptides to interact with and immobilize onto a Series S Sensor Chip SA (certified) (GE Healthcare) were used. Antibodies of interest were captured onto an antigen peptide-immobilized chip, and allowed to interact to each FcγR diluted with running buffer. To regenerate and repeatedly use the chip, the antibodies captured on the chip were washed off by reacting 10 mM glycine-HCl, pH 1.5.

[2] = target: T1, FcγRIIb; assay: SPR (Biacore), antibody captured, FcγR as analyte; relative to GpH7-A5/GpH7-B3/GpL16-k0 = 100
Method: as §1, §2

[3] = target: T3, FcγRIa; assay: as above
Method: as §1, §2

[4] = target: T4, FcγRIIIa extracellular domain with C-terminal His tag (human, UniProt P08637 17-208); assay: SPR (Biacore), antibody captured, FcγR as analyte; binding activity relative to control heterodimerized antibody
T4 construct: extracellular domain; also called FcgRIIIa; 3a; not shown: His tag attached to the C terminus
Method: as §1, §2

[5] = target: T2, FcγRIIb extracellular domain with …; assay: as above
Method: as §1, §2

[6] = target: T4, FcγRIIIa extracellular domain with …; assay: SPR (Biacore); He/Con_3a divided by He/Con_2b (FcγRIIIa over FcγRIIb)
Method: as §1, §2

T4 sequence (P08637 17-208): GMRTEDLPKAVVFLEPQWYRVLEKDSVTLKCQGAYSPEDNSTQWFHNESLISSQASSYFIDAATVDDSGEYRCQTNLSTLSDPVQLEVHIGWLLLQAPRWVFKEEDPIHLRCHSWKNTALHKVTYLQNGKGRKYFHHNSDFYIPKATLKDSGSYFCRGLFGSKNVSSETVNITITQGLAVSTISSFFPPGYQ
T3 sequence (P12314 16-292): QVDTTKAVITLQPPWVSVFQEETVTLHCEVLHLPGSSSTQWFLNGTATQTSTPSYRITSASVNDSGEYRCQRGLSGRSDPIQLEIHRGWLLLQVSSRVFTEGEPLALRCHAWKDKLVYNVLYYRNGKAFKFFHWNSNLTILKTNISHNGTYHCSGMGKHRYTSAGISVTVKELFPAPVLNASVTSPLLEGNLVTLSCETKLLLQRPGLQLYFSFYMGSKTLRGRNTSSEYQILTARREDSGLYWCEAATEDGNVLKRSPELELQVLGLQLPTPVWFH

Binder	He_1a/2b (Ia/IIb) [1]	He/Con_2b [2]	He/Con_1a [3]	He/Con_3a [4]	He/Con_2b [5]	He_3a/2b [6]
B1	0.65 ratio	149 % of control (=100)	97.1 % of control (=100)	–	–	–
B2	0.54 ratio	148 % of control (=100)	79.6 % of control (=100)	–	–	–
B3	0.46 ratio	180 % of control (=100)	82.5 % of control (=100)	–	–	–
B4	–	–	–	74.1 % of GpH7-A5/GpH7-B3/GpL16-k0 (=100)	58.1 % of GpH7-A5/GpH7-B3/GpL16-k0 (=100)	1.28 ratio
B5	0.63 ratio	147 % of control (=100)	92.8 % of control (=100)	–	–	–
B6	–	–	–	51.2 % of GpH7-A5/GpH7-B3/GpL16-k0 (=100)	38.5 % of GpH7-A5/GpH7-B3/GpL16-k0 (=100)	1.33 ratio
B7	–	–	–	43.2 % of GpH7-A5/GpH7-B3/GpL16-k0 (=100)	25.2 % of GpH7-A5/GpH7-B3/GpL16-k0 (=100)	1.72 ratio
B8	–	–	–	44 % of GpH7-A5/GpH7-B3/GpL16-k0 (=100)	17.8 % of GpH7-A5/GpH7-B3/GpL16-k0 (=100)	2.47 ratio
B9	0.59 ratio	174 % of control (=100)	102 % of control (=100)	–	–	–
B10	–	–	–	55.8 % of GpH7-A5/GpH7-B3/GpL16-k0 (=100)	43.9 % of GpH7-A5/GpH7-B3/GpL16-k0 (=100)	1.27 ratio
B11	–	–	–	52.1 % of GpH7-A5/GpH7-B3/GpL16-k0 (=100)	42.9 % of GpH7-A5/GpH7-B3/GpL16-k0 (=100)	1.21 ratio
B12	0.38 ratio	223 % of control (=100)	84 % of control (=100)	–	–	–
B13	–	–	–	56.6 % of GpH7-A5/GpH7-B3/GpL16-k0 (=100)	45.1 % of GpH7-A5/GpH7-B3/GpL16-k0 (=100)	1.25 ratio
B14	0.77 ratio	108 % of control (=100)	82.8 % of control (=100)	–	–	–
B15	0.65 ratio	150 % of control (=100)	97.8 % of control (=100)	–	–	–
B16	0.66 ratio	114 % of control (=100)	75.1 % of control (=100)	–	–	–
B17	0.41 ratio	193 % of control (=100)	78.4 % of control (=100)	–	–	–
B18	0.55 ratio	149 % of control (=100)	81.5 % of control (=100)	–	–	–
